Earlier results, collected in patent US20090145201A1, “METHODS AND APPARATUSES FOR REDUCING EFFECTS OF MOLECULE ADSORPTION WITHIN MICROFLUIDIC CHANNELS” (EKSIGENT TECHNOLOGIES, LLC, priority 2005, published 2009).

Conditions: source: Cantor and Schimmel 1980, Biophysical Chemistry Part II

For `[Cl-].[Na+]` [NaCl, reference compound], the “Diffusion Coefficient” value is given as ~1.5e−5 cm^2 · s^−1.

Compared with `NCC(=O)O` [glycine, reference compound], `OC[C@H]1O[C@@](CO)(O[C@H]2O[C@H](CO)[C@@H](O)[C@H](O)[C@H]2O)[C@@H](O)[C@@H]1O` [sucrose, reference compound] is lower in “Diffusion Coefficient” value: 9.33e−6 cm^2 · s^−1 for the first, 4.59e−6 cm^2 · s^−1 for the second.

Going from Bovine serum albumin to Fibrinogen, the “Diffusion Coefficient” value falls from 6.01e−7 cm^2 · s^−1 to 1.98e−7 cm^2 · s^−1.

First: Myosin
Second: Tropomyosin
The “Diffusion Coefficient” value of the first is lower: 1.10e−7 cm^2 · s^−1 for the first, 2.2e−7 cm^2 · s^−1 for the second.

For lysozyme, the “Diffusion Coefficient” value is given as 1.04e−6 cm^2 · s^−1.
